The target of this experiment is WT His-BRCA1(1-500)-BARD1(27-327) heterodimer (UniProt P38398 1-500; Q99728 27-327). Description: pull-down.
WT His-BRCA1(1-500)-BARD1(27-327) heterodimer, sequence (P38398 1-500, chain 1 of 2): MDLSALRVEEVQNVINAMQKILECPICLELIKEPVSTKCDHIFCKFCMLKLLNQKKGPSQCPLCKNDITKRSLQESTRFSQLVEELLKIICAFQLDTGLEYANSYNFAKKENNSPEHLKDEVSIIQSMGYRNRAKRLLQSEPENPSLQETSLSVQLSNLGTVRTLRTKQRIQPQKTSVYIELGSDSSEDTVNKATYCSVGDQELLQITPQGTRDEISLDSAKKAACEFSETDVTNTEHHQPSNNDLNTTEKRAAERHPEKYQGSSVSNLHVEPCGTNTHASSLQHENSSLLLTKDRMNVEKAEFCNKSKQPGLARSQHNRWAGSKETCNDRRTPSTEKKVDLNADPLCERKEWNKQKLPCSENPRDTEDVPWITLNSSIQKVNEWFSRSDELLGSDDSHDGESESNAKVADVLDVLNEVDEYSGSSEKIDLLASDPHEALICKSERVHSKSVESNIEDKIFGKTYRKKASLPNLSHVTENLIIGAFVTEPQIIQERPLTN
WT His-BRCA1(1-500)-BARD1(27-327) heterodimer, sequence (Q99728 27-327, chain 2 of 2): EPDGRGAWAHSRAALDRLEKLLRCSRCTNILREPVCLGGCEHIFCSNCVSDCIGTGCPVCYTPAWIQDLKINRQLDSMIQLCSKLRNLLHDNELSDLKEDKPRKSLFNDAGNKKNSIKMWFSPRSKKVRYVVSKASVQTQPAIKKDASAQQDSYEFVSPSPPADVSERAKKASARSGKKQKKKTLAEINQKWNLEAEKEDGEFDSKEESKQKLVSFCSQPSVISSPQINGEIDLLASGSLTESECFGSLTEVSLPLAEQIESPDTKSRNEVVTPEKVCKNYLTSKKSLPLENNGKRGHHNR

B1: Human recombinant RAD51 (Abcam) (natural protein)
chain: MAMQMQLEANADTSVEEESFGPQPISRLEQCGINANDVKKLEEAGFHTVEAVAYAPKKELINIKGISEAKADKILAEAAKLVPMGFTTATEFHQRRSEIIQITTGSKELDKLLQGGIETGSITEMFGEFRTGKTQICHTLAVTCQLPIDRGGGEGKAMYIDTEGTFRPERLLAVAERYGLSGSDVLDNVAYARAFNTDHQTQLLYQASAMMVESRYALLIVDSATALYRTDYSGRGELSARQMHLARFLRMLLRLADEFGVAVVITNQVVAQVDGAAMFAADPKKPIGGNIIAHASTTRLYLRKGRGETRICKIYDSPCLPEAEAMFAINADGVGDAKD
Take B1: the binding result is on record as “binds”.

The record behind these values is publication doi:10.1101/478511 (bioRxiv, 2018).
